The results in this text go back to patent US20220380471A1 (US Dept. of Health and Human Services, published 2022).

The labels stand for the following.
T1: hB7H3-His (human, UniProt Q5ZPR3 29-461, limits assumed)
T1 construct: not shown: His tag
T1 sequence (looked up): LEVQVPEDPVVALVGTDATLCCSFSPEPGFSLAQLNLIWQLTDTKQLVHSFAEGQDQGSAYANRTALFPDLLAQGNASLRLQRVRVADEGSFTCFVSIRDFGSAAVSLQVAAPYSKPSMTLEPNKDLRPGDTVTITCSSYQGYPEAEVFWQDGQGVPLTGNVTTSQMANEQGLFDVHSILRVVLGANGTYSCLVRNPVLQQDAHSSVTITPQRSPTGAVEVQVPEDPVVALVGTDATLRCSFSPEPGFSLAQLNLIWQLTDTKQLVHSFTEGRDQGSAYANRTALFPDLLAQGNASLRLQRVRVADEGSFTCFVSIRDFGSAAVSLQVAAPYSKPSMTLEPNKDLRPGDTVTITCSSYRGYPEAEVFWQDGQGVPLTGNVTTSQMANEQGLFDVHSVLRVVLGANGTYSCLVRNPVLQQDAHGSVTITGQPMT

T2: monkey B7H3-His (monkey)
T2 chain: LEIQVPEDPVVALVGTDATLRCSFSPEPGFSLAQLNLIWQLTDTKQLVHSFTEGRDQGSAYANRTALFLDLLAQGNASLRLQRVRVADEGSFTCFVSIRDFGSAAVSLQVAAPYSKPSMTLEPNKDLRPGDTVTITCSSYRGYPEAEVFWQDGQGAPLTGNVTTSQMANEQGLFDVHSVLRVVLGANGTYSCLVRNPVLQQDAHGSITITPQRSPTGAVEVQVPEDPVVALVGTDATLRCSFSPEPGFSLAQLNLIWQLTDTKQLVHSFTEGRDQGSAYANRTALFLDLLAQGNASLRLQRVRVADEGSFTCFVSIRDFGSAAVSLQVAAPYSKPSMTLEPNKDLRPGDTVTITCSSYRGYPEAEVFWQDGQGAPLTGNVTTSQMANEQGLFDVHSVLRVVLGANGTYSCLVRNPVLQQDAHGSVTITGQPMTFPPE

T3: B7H3 (CD276) on MC38-CD276+ cells
T3 construct: whole, on cells; MC38-CD276KO cells served as the negative control; also called MC38-B7H3+
T3 sequence (Q5ZPR3 1-534, species assumed, looked up): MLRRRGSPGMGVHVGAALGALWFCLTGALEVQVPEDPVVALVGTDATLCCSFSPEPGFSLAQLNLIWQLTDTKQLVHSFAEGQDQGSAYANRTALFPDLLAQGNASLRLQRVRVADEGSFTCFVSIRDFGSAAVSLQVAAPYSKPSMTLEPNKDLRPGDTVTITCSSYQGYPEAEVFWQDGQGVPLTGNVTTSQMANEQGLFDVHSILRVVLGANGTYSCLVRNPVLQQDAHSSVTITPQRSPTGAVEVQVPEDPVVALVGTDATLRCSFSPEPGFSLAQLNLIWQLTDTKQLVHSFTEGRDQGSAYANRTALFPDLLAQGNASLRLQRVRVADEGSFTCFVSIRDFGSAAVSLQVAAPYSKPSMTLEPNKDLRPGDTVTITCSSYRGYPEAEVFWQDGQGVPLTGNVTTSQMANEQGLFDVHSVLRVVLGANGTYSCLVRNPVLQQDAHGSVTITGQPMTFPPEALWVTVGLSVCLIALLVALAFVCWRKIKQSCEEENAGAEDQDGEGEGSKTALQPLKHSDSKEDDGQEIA

T4: B7H3 peptide 15 (human)
T4 peptide: LRPGDTVTITCSSYQGYP

T5: B7H3 peptide 11 (human)
T5 peptide: SFTCFVSIRDFGSAAVSL

T6: recombinant human B7H3-Fc protein (human, UniProt Q5ZPR3 29-466, limits assumed)
T6 construct: 154 kDa non-reduced, 77 kDa reduced; also called hB7H3-Fc; not shown: Fc part
T6 sequence (looked up): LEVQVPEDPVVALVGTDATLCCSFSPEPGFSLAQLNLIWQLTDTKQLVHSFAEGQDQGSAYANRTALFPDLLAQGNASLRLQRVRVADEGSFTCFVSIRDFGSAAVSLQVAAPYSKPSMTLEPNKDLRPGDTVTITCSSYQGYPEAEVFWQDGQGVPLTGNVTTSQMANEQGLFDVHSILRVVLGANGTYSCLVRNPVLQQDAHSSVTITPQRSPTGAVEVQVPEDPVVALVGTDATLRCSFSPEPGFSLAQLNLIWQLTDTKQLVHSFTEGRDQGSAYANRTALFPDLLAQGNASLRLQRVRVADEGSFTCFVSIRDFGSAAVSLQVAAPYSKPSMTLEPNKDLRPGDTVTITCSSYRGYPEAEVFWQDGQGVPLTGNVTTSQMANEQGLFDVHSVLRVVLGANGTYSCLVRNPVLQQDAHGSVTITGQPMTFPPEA

B1: RWC4 (VHH)
VHH: EVQLVESGGGSVQAGGSLRLSCVASEDSTSAMCMGWFRQAPGKEREGVACINPTGEVTWYGDSVKGRFTISRDTVKKIVYLQMNSLKPEDTAMYYCAARVTYGGDWSTDTDYEYWGQGTQVTVSS
notes: Camel VHH; tag not described; also called camel antibody RWC4
B2: RWG8 (VHH)
VHH: DVQLVESGGGLVQPGGSLRLSCAASGFTFSRYWMGWFRQAPGKGVEWVSTINSGGGSTYYADSVKGRFTISRDNAKNTLYLQLNNLKTEDTAMYYCAKEQWRTGSRGQGTQVTVSS
notes: Camel VHH; tag not described; also called camel antibody RWG8
B3: RWB12 (VHH)
VHH: QVQLVESGGGSVQVGGSLRLSCAASGFTYNSYSVGWFRQAPGKEREGVAAINSGGSSTYYAASVKGRFTISRDNAKNTVYLQMNSLKPEDTAMYYCAARSPSPLTFQTRTLREDSYNYWGQGTQVTVSS
notes: Camel VHH; tag not described; also called camel antibody RWB12
B4: RWG4 (VHH)
VHH: QVQLVQSGGGLVQPGGSLRLSCAASGFTFSVYWFYWVRQAPRQGLEWVSTIASNGSTYYSDSVKGRFTISRDNAKNTVYLQMNSLKPEDTAVYYCVSDPDYYSDYERAYKFWAQGTQVTVSS
notes: Camel VHH; tag not described; also called camel antibody RWG4

Chain of PD-L1 (Q9NZQ7 whole entry): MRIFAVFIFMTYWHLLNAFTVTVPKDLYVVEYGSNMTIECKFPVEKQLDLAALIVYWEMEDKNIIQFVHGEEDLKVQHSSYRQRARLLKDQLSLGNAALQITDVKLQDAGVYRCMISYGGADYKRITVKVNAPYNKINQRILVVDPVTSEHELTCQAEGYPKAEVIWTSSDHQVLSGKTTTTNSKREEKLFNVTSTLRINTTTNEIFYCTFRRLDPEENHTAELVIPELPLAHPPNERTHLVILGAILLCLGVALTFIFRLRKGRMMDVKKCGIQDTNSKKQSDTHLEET

One test addresses T1, hB7H3-His. Nature of the test: ELISA; row B7H3-his; well 1 of 3. The gist of the method:
(§1)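 Camel VHH nanobodies were isolated by phage panning on recombinant B7H3-Fc. After purification, their binding to immobilised B7H3 fusion proteins and non-B7H3 recombinant proteins was read out by ELISA and recorded as signal.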
Background: In an ELISA, binding on a coated surface is turned into a signal by an enzyme label.
B1: the “ELISA reading (name not given)” value came to 0.114.

Regarding B2, the “ELISA reading (name not given)” value was 0.0693.

For the molecule B3, the “ELISA reading (name not given)” value is 0.0603.

Another test addresses T7, Irrelevant antigen.
T7 construct: negative control
Kind of test: ELISA; row Irrelevant antigen; well 2 of 3. The gist of the method:
as §1
As to B1, the “ELISA reading (name not given)” value is 0.0888.

Take B2: the “ELISA reading (name not given)” value is 0.098.

In the case of B3, the “ELISA reading (name not given)” value came to 0.0864.

The target of the next test is T7, Irrelevant antigen. Kind of test: ELISA; row Irrelevant antigen; well 3 of 3. The gist of the method:
as §1
As for B1, the “ELISA reading (name not given)” value amounted to 0.102.

As to B2, the “ELISA reading (name not given)” value is 0.114.

For B3, the “ELISA reading (name not given)” value amounted to 0.0853.

The target of a further test is T2, monkey B7H3-His. Kind of test: ELISA; row Monkey; well 2 of 3. The gist of the method:
as §1
For the molecule B1, the “ELISA reading (name not given)” value came to 1.

In the case of B2, the “ELISA reading (name not given)” value turned out to be 0.198.

For B3, the “ELISA reading (name not given)” value was 0.201.

Another test deals with T3, B7H3 (CD276) on MC38-CD276+ cells. Kind of test: flow cytometry on MC38-CD276+ cells, VHH at 10 ug/ml. For orientation: In flow cytometry, cells or beads pass a laser one at a time.
Take B1: the Positive rates was found to be 98.3%.

Turning to B2, the Positive rates was found to be 4.68%.

For the molecule B3, the Positive rates came to 4.16%.

The molecule B4 displayed a Positive rates of 85.8%.

The target in a further test is T4, B7H3 peptide 15. Kind of test: peptide ELISA (OD450), 18-mer peptides of human B7H3. The text has this:
(§2) FIGS. 21A-21C: G8 cross-reacts with mouse B7H3 and kills mouse cancer cells. (FIG. 21A) Binding activity of anti-B7H3 nanobodies to mouse antigen detected by flow cytometry. […] (FIG. 21C). […] A total of 48 peptides from the human B7H3 protein were designed and synthesized. Each peptide consisted of 18 amino acids and overlapped with adjacent peptides by 9 amino acids. ELISA technology was used to test binding ability of antibody to each peptide. Number indicates the OD₄₅₀ value. […] The peptide sequences are shown below the table. C4 and B12 may have a conformational epitope that couldn't be predicted by a linearized peptide library.
(§3) A total of 48 peptides from the human B7H3 protein were designed and synthesized. Each peptide consisted of 18 amino acids and overlapped with adjacent peptides by 9 amino acids. ELISA technology was used to test binding ability of the antibodies to each peptide (FIG. 21C). […] C4 and B12 may have a conformational epitope that couldn't be predicted by a linearized peptide library.
For the molecule B1, the binding result is “no binding”.

Consider B2, for which the binding result is reported as “binds”.

Take B3: the binding result is “no binding”.

Another test concerns the target T5, B7H3 peptide 11. Described as above.
Excerpt: as §2, §3
On to B1, for which the binding result is listed as “no binding”.

As for B2, the binding result was “binds”.

Turning to B3, the binding result is reported as “no binding”.

The next test deals with T6, recombinant human B7H3-Fc protein. Kind of test: ELISA; row B7H3-Fc; well 3 of 3. The gist of the method: as §1
On to B1, for which the “ELISA reading (name not given)” value is 1.95.

Turning to B2, the “ELISA reading (name not given)” value was found to be 1.87.

Take B3: the “ELISA reading (name not given)” value is 0.952.

The next test addresses PD-L1. Nature of the test: ELISA; row PDL1-Fc; well 2 of 3. The gist of the method: as §1
B1: the “ELISA reading (name not given)” value stood at 0.0627.

Regarding B2, the “ELISA reading (name not given)” value was 0.0633.

For the molecule B3, the “ELISA reading (name not given)” value came out at 0.0685.
